Values of other authors as cited in article PMC3428507.

Molecular target: Pf1 MBD (Homo sapiens) (UniProt Q96QT6)
Sequence (Q96QT6 200-241): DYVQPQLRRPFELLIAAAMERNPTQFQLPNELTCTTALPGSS

MRG15 MRG, sequence (Q9UBU8 188-362): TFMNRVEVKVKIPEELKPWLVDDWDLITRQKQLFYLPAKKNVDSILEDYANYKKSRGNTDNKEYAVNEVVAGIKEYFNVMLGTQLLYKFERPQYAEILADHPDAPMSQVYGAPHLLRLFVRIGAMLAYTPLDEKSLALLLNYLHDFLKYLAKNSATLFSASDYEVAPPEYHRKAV

Kd: 15 nM
Substance: MRG15 MRG (from UniProt Q9UBU8)
